Results: PMC2966024

Target: PspB-T25 fusion (Y. enterocolitica PspB with Cya-T25 fused to its C-terminus) (Y. enterocolitica)
Experiment: two-hybrid

For “PspA-T18 fusion (Y. enterocolitica PspA with Cya-T18 fused to its C-terminus) (from UniProt Q9F4H4 1-221) (natural protein)”, the beta-galactosidase activity was 1470 Miller units.
